In patent US20250002565A1 (published 2025):
Positions count from the first letter of the chain named. No end group written: not given here.

T1: 15-mer peptide LGIWGCSGKLICTTT (SEQ ID NO:1) (HIV, not fully specified; cysteine pairing not given here)
T1 construct: also called U1731DB060-1; U173DB060-1
T1 peptide: LGIWGCSGKLICTTT

B1: HIV-binding peptide #1 (antibody, human IgG1, kappa, V domains shown)
VH: QVQLQESGGGVVQPGRSLRLSCAASGFTFSSYAIHWVRQAPGKGLEWVAVISYDGSNRYYADSVKGRFTISRDNSKNTLYLQMNSLRPEDTAVYYCARDRFSAVASTPTYHNYFYMDVWGKGTTVTVSS
VL: DIQMTQSPSSLSASVGDRVTITCQASQDVNNYLAWYQQKPGQAPRLLIYDASNLETGVPSRFSGSGSGTDFTLTISSLQPEDLATYYCQQYDNTPYTFGQGTKLEIKR
notes: Recombinant, fully human immunoglobulin; also called U1205DB020-1
B2: HIV-binding peptide #10Q (antibody, V domains shown)
VH: B1 VH
notes: also called antibody#10-5Q; U1205DB020-10
B3: HIV-binding peptide #9Q (antibody, human IgG1, V domains shown)
VH: B1 VH
B4: HIV-binding peptide #4 (antibody, human IgG1, kappa, V domains shown)
VH: B1 VH
VL: B1 VL with V29I, T94L
notes: Recombinant, fully human immunoglobulin; also called U1205DB020-4
B5: HIV-binding peptide #3 (antibody, human IgG1, kappa, V domains shown)
VH: B1 VH
VL: B1 VL with T94L
notes: Recombinant, fully human immunoglobulin; also called U1205DB020-3
B6: HIV-binding peptide #7 (antibody, human IgG1, kappa, V domains shown)
VH: B1 VH
VL: B1 VL with N30S, T94L
notes: also called U1205DB020-7
B7: HIV-binding peptide #6 (antibody, human IgG1, kappa, V domains shown)
VH: B1 VH
VL: B1 VL with V29I, N30S
notes: Recombinant, fully human immunoglobulin; also called U1205DB020-6
B8: HIV-binding peptide #8 (antibody, human IgG1, kappa, V domains shown)
VH: B1 VH
VL: B1 VL with V29I, N30S, T94L
notes: Recombinant, fully human immunoglobulin; also called U1205DB020-8
B9: HIV-binding peptide #11Q (antibody, V domains shown)
VH: B1 VH
notes: Heavy chain only with variant CH1/CH2 (hinge cysteines replaced by serines)
B10: HIV-binding peptide #5 (antibody, human IgG1, kappa, V domains shown)
VH: B1 VH
VL: B1 VL with N30S
notes: Recombinant, fully human immunoglobulin; also called U1205DB020-5
B11: HIV-binding peptide #2 (antibody, human IgG1, kappa, V domains shown)
VH: B1 VH
VL: B1 VL with V29I
notes: Recombinant, fully human immunoglobulin; also called U1205DB020-2
B12: HIV-binding peptide #10V (antibody, V domains shown)
VH: B1 VH with Q5V
notes: differs from #10Q by Q to V at position 5 of the heavy chain; also called antibody#10-5V; U6323DD200-2

Biological target: T1, 15-mer peptide LGIWGCSGKLICTTT (SEQ ID …)
Test: indirect ELISA; 15-mer peptide coated 1 ug/ml in DTT; antibody at 37 ng/ml
Procedure: (§1) In a first study, an ELISA was prepared in which the linear (reduced) form of the 15-mer peptide […] (SEQ ID NO:1) was coated onto a solid support and contacted with various concentrations of peptides #1, #2, #3, #4, #5, #6, #7, #8, #9Q, #10Q, and #11Q. A mouse, anti-human IgG Fc-HRP at 0.2 μg/ml was used as a secondary antibody.
In the case of B1, the “ELISA OD” value is reported as 0.098 OD.
For B2, the “ELISA OD” value was 0.209 OD.
For B3, the “ELISA OD” value was 0.122 OD.
With B4 the “ELISA OD” value was 0.077 OD.
With B5 the “ELISA OD” value was 0.074 OD.
In the case of B6, the “ELISA OD” value is reported as 0.098 OD.
B7 was tested, and the “ELISA OD” value was 0.072 OD.
In the case of B8, the “ELISA OD” value is reported as 0.089 OD.
In the case of B9, the “ELISA OD” value is reported as 0.119 OD.
With B10 the “ELISA OD” value was 0.081 OD.
For B11, the “ELISA OD” value was 0.074 OD.

These binders were tested against gp41 of HIV isolate SF-162 (clade B clinical isolate) (HIV isolate SF-162, clade B) (assay: cell-based or functional assay).
With B2 the “IC value vs SF 162 (µg/ml) in PBMC based in vitro assays” value (“IC value vs SF 162 (µg/ml)” for short) was 0.05 µg/mL.
For B6, the “IC value vs SF 162 (µg/ml)” value was 0.5 µg/mL.
B12 was tested, and the “IC value vs SF 162 (µg/ml)” value was 0.5 µg/mL.

What follows are binders tested against T2, gp41 on the membrane of HIV-infected CD4+ cells (HIV) (assay: FACS on HIV-infected CD4+ cells, absence of sCD4).
T2 construct: whole, on cells; also called CD4 cell-surface gp41
Procedure: (§2) For the FACS binding studies, the CD4+ cells that were infected with HIV expressed HIV viral envelope proteins on the cell membrane surfaces, e.g., gp160=gp41 and gp 120. Binding of proteins #7, #10Q, and #10V was tested in both presence and absence of soluble CD4 (sCD4).
B2 was tested, and the “Fluorescent (FACS) counts” value was 120000 counts.
In the case of B6, the “Fluorescent (FACS) counts” value is reported as 25900 counts.
For B12, the “Fluorescent (FACS) counts” value was 56600 counts.

Biological target: T1, 15-mer peptide LGIWGCSGKLICTTT (SEQ ID …)
Test: indirect ELISA; 15-mer peptide coated 1 ug/ml in DTT; negative control well of this row (not explained)
Procedure: as §1
With B1 the “ELISA OD (Neg. Cont.)” value was 0.096 OD.
B2 was tested, and the “ELISA OD (Neg. Cont.)” value was 0.084 OD.
In the case of B3, the “ELISA OD (Neg. Cont.)” value is reported as 0.105 OD.
In the case of B4, the “ELISA OD (Neg. Cont.)” value is reported as 0.091 OD.
B5 was tested, and the “ELISA OD (Neg. Cont.)” value was 0.083 OD.
For B6, the “ELISA OD (Neg. Cont.)” value was 0.088 OD.
For B7, the “ELISA OD (Neg. Cont.)” value was 0.087 OD.
With B8 the “ELISA OD (Neg. Cont.)” value was 0.088 OD.
For B9, the “ELISA OD (Neg. Cont.)” value was 0.104 OD.
With B10 the “ELISA OD (Neg. Cont.)” value was 0.078 OD.
With B11 the “ELISA OD (Neg. Cont.)” value was 0.075 OD.

The binders below were run against T3, recombinant HIV gp41 (HIV) (assay: indirect ELISA; gp41 coated 2 µg/ml in DTT (by the table's columns; paragraph 121 calls it the value against SEQ ID NO:1)).
T3 construct: also called U7267DC080-1; U1916DG190-1
Procedure: (§3) Variants #9V, #10V, and #11V were prepared with substitutions in the heavy chain. These variants comprised amino acids sequences nearly identical to #9Q, #10Q, and #11Q, respectively, with the only distinction being a substitution of glutamine (Q) for valine (V) at the 5 position of the heavy chain. Exemplary peptides #10Q and #10V were tested in indirect ELISA assays to determine the EC50 values for binding to the epitope having the amino acid sequence of SEQ ID NO:1 and HIV gp41. The results of these studies are shown in Tables 6 and 7 below, as well as FIGS. 2 and 3. Target proteins U7267DC080-1 and U173DB060-1 correspond to recombinant gp41 and the 15-mer peptide […] (SEQ ID NO:1), respectively.
B2 showed an EC50 of 5.54 µg/mL.
For B12, the EC50 was 4.59 µg/mL.

Each binder was assayed against T3, recombinant HIV gp41 (assay: indirect ELISA; gp41 coated 2 µg/ml in PBS).
Procedure: as §3
In the case of B2, the EC50 is reported as 1.78 µg/mL.
Work on B12 yielded an EC50 of 1.39 µg/mL.

Biological target: T1, 15-mer peptide LGIWGCSGKLICTTT (SEQ ID …)
Test: indirect ELISA; 15-mer peptide coated 1 ug/ml in DTT; antibody at 111 ng/ml
Procedure: as §1
With B1 the “ELISA OD” value was 0.076 OD.
B2 was tested, and the “ELISA OD” value was 0.377 OD.
With B3 the “ELISA OD” value was 0.171 OD.
With B4 the “ELISA OD” value was 0.073 OD.
B5 was tested, and the “ELISA OD” value was 0.072 OD.
For B6, the “ELISA OD” value was 0.084 OD.
With B7 the “ELISA OD” value was 0.08 OD.
In the case of B8, the “ELISA OD” value is reported as 0.1 OD.
B9 was tested, and the “ELISA OD” value was 0.127 OD.
B10 was tested, and the “ELISA OD” value was 0.071 OD.
For B11, the “ELISA OD” value was 0.188 OD.

These binders were tested against T3, recombinant HIV gp41 (assay: GenScript binding assay, EC50 vs rgp41 (summary table; per first reading the same value as in Tables 6-8)).
For B2, the EC50 was 1.78 µg/mL.
B6 showed an EC50 of 107 µg/mL.
In the case of B12, the EC50 is reported as 1.39 µg/mL.

Biological target: T1, 15-mer peptide LGIWGCSGKLICTTT (SEQ ID …)
Test: indirect ELISA; 15-mer peptide coated 1 ug/ml in DTT; antibody at 1000 ng/ml
Procedure: as §1
For B1, the “ELISA OD” value was 0.079 OD.
In the case of B2, the “ELISA OD” value is reported as 1.71 OD.
For B3, the “ELISA OD” value was 0.745 OD.
With B4 the “ELISA OD” value was 0.07 OD.
B5 was tested, and the “ELISA OD” value was 0.072 OD.
With B6 the “ELISA OD” value was 0.09 OD.
With B7 the “ELISA OD” value was 0.079 OD.
B8 was tested, and the “ELISA OD” value was 0.076 OD.
For B9, the “ELISA OD” value was 0.441 OD.
In the case of B10, the “ELISA OD” value is reported as 0.081 OD.
With B11 the “ELISA OD” value was 0.068 OD.

Biological target: T1, 15-mer peptide LGIWGCSGKLICTTT (SEQ ID …)
Test: indirect ELISA; 15-mer peptide coated 1 ug/ml in DTT; antibody at 12 ng/ml
Procedure: as §1
For B1, the “ELISA OD” value was 0.08 OD.
B2 was tested, and the “ELISA OD” value was 0.14 OD.
With B3 the “ELISA OD” value was 0.111 OD.
B4 was tested, and the “ELISA OD” value was 0.073 OD.
For B5, the “ELISA OD” value was 0.087 OD.
With B6 the “ELISA OD” value was 0.096 OD.
B7 was tested, and the “ELISA OD” value was 0.077 OD.
For B8, the “ELISA OD” value was 0.094 OD.
B9 was tested, and the “ELISA OD” value was 0.092 OD.
B10 was tested, and the “ELISA OD” value was 0.082 OD.
With B11 the “ELISA OD” value was 0.065 OD.

Biological target: T1, 15-mer peptide LGIWGCSGKLICTTT (SEQ ID …)
Test: indirect ELISA; 15-mer peptide coated 1 ug/ml in DTT; antibody at 333 ng/ml
Procedure: as §1
In the case of B1, the “ELISA OD” value is reported as 0.096 OD.
In the case of B2, the “ELISA OD” value is reported as 0.863 OD.
For B3, the “ELISA OD” value was 0.322 OD.
For B4, the “ELISA OD” value was 0.079 OD.
In the case of B5, the “ELISA OD” value is reported as 0.077 OD.
With B6 the “ELISA OD” value was 0.092 OD.
B7 was tested, and the “ELISA OD” value was 0.078 OD.
B8 was tested, and the “ELISA OD” value was 0.073 OD.
With B9 the “ELISA OD” value was 0.241 OD.
B10 was tested, and the “ELISA OD” value was 0.086 OD.
B11 was tested, and the “ELISA OD” value was 0.076 OD.

The binders below were run against T2, gp41 on the membrane of HIV-infected … (assay: FACS on HIV-infected CD4+ cells, presence of sCD4).
Procedure: as §2
B2 was tested, and the “Fluorescent (FACS) counts” value was 110000 counts.
In the case of B6, the “Fluorescent (FACS) counts” value is reported as 25000 counts.
For B12, the “Fluorescent (FACS) counts” value was 29900 counts.
